Patent publication US9150655B2, “Anti-C-met antibody and methods of use thereof” (ACADEMIA SINICA, priority 2010, dated 2015)

Legend:
[1] = target: T1, c-Met932-Fc protein (Homo sapiens, UniProt P08581); assay: Binding kinetics of anti-c-Met scFv by SPR (BIAcore)
T1 construct: DNA fragments encoding amino acid residues 1 to 932 and 1 to 567 of c-Met were amplified by PCR; made in house; host or cells: 293T cells, transient transfection, protein G purification from supernatant
Procedure: The affinity and kinetics of anti-c-Met scFv were measured by SRP in BIAcore X (GE healthcare). In BIAcore flowcell, 30 μg/ml of c-MetF932-Fc protein was coupled to EDC- and NHS-activated CM5 sensor chip followed by blocking with ethanolamine according to manufacturer's directions. Associated and dissociated phases were monitored for 3 and 5 min, respectively, under continuous flow of 30 μl/min using scFv concentrations ranging 5 to 200 nM. Regeneration was performed by injection of regenerate buffer (0.2 M NaCl, 10 mM glycine, pH 2.7). To determine binding constants, the sensorgrams were fit globally to a sample 1:1 interaction model using BIAevaluation software (GE healthcare).
Binding kinetic constants (Kon and Koff) and affinity of each soluble scFv for c-Met932-Fc protein were measured by Surface Plasmon Resonance (SPR).
Kon and Koff were measured by SRP in a BIAcore using purified scFvs, and the Kd was calculated by BIAevaluation software.

[2] = target: T2, c-Met (Homo sapiens, UniProt P08581); assay: HGF-induced c-Met phosphorylation in A549 cells (Western blot); type: cell-based; conditions: A549 cells co-treated with HGF and S1 at 37° C. for 15 min; relative to cells without S1
T2 construct: endogenous in cells; host or cells: A549
Procedure: Since the anti-c-Met scFv S1 presented superiorly competitive capability, whether S1 would antagonize HGF to activate c-Met in cancer cells was examined. A549 cells were co-treated with HGF and S1 at 37° C. for 15 min. Total cell lysate was subjected to Western blotting using anti-tyrosine-phosphorylated c-Met antibody and an antibody against the c-Met β-chain (c-Met). Quantification of phosphorylated c-Met was based on luminescence intensity and normalized with total c-Met.

[3] = target: T3, c-MetF932-Fc protein (Homo sapiens, UniProt P08581); assay: Competitive ELISA: soluble scFv inhibit HGF binding to immobilized c-Met protein
T3 construct: DNA fragments encoding amino acid residues 1 to 932 and 1 to 567 of c-Met were amplified by PCR; made in house; host or cells: 293T cells, transient transfection, protein G purification from supernatant
Procedure: To monitor inhibition effect of scFv, we coated the c-MetF932-Fc protein on a 96-well plate and blocked nonspecific binder with 3% BSA in PBS. 1 nM human HGF (R&D) plus varying concentrations of anti-c-Met scFv or normal mouse IgG were applied to the wells. The amount of HGF bound to c-Met was determined using goat anti-human HGF (R&D), following incubation of HRP-labeled mouse anti-goat IgG (Jackson ImmunoResearch) and OPD substrate (Sigma) plus H2O2. The absorbance was measured with 490 nm using a microplate reader. Inhibition percentage was calculated by the following equation: [(the absorbance of HGF bound without competitor)−(the absorbance of HGF bound with competitor)]/(the absorbance of HGF bound without competitor)×100%.
To test whether the three anti-c-Met scFvs could inhibit HGF binding to c-Met, the human lung cancer cell line H1993 was chosen to undergo competition ELISA (Lutterbach B et al. (2007) Cancer Res 67:2081-2088). […] HGF binding to H1993 cells without competitors was considered 100%. H1993 is known to express a high level of c-Met. When H1993 cells were incubated with HGF in the presence of the phage clones, the binding of HGF to H1993 cells was diminished by more than 90% by the anti-c-Met scFv PC1. PC20 inhibited more than 50% of HGF binding to c-Met (FIG. 2, panel A). The competitive inhibition of HGF by different concentrations of soluble scFvs was also tested. Normal mouse IgG (NMIgG) was used as a negative control. HGF binding to immobilized c-Met protein without competitors was considered 100%.

[4] = target: T4, endogenous c-Met on H460 cells (Homo sapiens, UniProt P08581); assay: FACS of scFv binding to H460 and c-Met knockdown H460 cells; type: cell-based
T4 construct: endogenous in cells; host or cells: H460 and MET-KD H460
Procedure: To further confirm that the anti-c-Met scFv would bind specifically to endogenous c-Met on human cancer cells, H460 cells and c-Met knockdown H460 cells were stained with anti-c-Met scFv, either S1 or S20, and FACS analysis was carried out (FIG. 10, panel B).

[5] = target: T5, c-Met567-Fc protein (Homo sapiens, UniProt P08581); assay: Epitope ELISA on c-Met932-Fc and c-Met567-Fc; type: binding; conditions: immobilized recombinant proteins
T5 construct: DNA fragments encoding amino acid residues 1 to 932 and 1 to 567 of c-Met were amplified by PCR; made in house; host or cells: 293T cells, transient transfection, protein G purification from supernatant
Procedure: Therefore, binding epitopes of anti-c-Met scFvs localized within HGF binding domain of c-Met were investigated. The binding ability of anti-c-Met scFvs was examined for c-Met932-Fc protein including whole extracellular domain of c-Met, and c-Met567-Fc protein containing Sema and PSI domain, both of which have been defined as HGF binding regions (FIG. 2, panel C). The c-Met recombinant proteins were immobilized on titer wells, and incubated with anti-c-Met scFvs. Anti-c-Met polyclonal antibody and anti-E tag antibody was used as a positive and negative control, respectively. […] The binding intensity of S1 for c-Met932-Fc was similar to that for c-Met567-Fc.

[6] = test system: VEGF-stimulated HUVECs; assay: FACS of scFv binding to VEGF-stimulated HUVECs; type: cell-based, human
Procedure: (§1) The binding activities of anti-c-Met scFvs to endogenous c-Met were analyzed in cancer cells by ELISA (FIG. 9, panel A). […] Normal mouse IgG was used as a control antibody. FACS analysis was performed to verify that […] anti-c-Met scFvs also bound VEGF-stimulated HUVECs. Anti-CD31 antibody and control scFv were used a positive and negative control, respectively (FIG. 9, panel B).

[7] = target: T6, endogenous c-Met in cancer cells (Homo sapiens, UniProt P08581); assay: ELISA of scFv binding to human cancer cell lines; type: cell-based
T6 construct: endogenous in cells
Procedure: as §1

[8] = purified scFv, c-MetF932-Fc on CM5 chip

T1 sequence (P08581 25-307): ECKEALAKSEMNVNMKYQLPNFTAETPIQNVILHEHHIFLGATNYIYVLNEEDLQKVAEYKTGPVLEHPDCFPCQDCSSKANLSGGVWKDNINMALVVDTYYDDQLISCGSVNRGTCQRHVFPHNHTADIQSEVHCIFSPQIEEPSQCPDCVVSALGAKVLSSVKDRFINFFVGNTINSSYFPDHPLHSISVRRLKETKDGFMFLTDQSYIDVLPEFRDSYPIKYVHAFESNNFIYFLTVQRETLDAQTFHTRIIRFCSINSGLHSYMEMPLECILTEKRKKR
T1 sequence (P08581 308-932): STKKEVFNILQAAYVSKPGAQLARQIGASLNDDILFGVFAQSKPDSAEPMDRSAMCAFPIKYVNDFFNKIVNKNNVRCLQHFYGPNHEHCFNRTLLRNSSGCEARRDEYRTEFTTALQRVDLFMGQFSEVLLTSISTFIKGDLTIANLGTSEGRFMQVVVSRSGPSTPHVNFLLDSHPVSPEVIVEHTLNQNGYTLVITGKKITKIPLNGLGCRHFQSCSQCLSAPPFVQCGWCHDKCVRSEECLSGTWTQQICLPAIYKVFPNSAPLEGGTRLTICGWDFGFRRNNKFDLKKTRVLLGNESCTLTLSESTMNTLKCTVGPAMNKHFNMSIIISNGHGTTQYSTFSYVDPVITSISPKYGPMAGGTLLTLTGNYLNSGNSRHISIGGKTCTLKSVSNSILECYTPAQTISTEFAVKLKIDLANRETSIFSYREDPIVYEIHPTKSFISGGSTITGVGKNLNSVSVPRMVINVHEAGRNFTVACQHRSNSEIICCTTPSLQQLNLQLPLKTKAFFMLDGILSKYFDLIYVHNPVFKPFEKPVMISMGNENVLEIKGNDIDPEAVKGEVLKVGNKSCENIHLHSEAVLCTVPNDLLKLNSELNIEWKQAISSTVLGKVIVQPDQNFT
T6 sequence (P08581 25-1390): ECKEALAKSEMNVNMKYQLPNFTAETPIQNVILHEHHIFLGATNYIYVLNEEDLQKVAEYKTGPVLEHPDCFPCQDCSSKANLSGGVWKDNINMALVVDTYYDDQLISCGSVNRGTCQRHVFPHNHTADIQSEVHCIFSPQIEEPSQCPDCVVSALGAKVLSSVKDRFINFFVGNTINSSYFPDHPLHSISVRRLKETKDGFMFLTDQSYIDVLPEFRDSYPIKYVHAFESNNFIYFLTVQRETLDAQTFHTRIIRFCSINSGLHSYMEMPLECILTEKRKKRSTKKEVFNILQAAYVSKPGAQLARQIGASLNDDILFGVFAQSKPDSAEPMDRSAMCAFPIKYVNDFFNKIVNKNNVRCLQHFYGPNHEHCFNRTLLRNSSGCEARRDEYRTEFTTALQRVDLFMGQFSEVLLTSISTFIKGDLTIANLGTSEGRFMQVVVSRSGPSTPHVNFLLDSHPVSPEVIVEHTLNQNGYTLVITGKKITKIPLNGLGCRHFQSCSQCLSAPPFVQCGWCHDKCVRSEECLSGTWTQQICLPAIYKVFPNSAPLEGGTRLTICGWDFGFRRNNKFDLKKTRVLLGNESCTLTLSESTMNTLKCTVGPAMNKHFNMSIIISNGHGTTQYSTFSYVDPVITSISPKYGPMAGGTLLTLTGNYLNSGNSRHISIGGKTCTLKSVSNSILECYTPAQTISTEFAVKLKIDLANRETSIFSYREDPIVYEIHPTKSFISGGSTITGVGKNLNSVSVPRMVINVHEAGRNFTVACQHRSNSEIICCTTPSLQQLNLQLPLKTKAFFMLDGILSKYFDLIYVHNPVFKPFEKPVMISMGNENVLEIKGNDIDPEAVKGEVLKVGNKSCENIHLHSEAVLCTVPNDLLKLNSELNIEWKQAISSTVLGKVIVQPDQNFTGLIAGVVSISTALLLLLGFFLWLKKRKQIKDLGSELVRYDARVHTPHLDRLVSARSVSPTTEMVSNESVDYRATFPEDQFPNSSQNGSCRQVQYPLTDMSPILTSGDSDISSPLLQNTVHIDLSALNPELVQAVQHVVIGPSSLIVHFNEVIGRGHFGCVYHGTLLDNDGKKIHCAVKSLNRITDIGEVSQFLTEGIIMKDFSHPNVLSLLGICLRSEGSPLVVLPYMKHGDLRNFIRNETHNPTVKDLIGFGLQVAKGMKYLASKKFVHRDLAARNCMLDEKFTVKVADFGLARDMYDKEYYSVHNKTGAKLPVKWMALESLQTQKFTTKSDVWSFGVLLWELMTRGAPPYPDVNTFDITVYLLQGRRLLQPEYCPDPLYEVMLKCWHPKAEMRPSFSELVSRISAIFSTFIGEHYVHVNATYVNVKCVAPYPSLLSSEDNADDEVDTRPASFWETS
T4 sequence (P08581 25-1390): as above
T3 sequence (P08581 25-307 limits assumed): as the sequence (P08581 25-307) above
T3 sequence (P08581 308-932 limits assumed): as the sequence (P08581 308-932) above
T2 sequence (P08581 25-1390): as the sequence (P08581 25-1390) above

B1: S1: soluble anti-c-Met scFv corresponding to phage clone PC1; VH/VL sequences in Table 1 (protein)
scFv: MAQVQLQQSGPGLVKPSQTLSLTCDISGDSVSSNSAAWNWIRQSPSRGLEWLGRTYYRSRWYNEYAVSVRGRISINAETSKNQFSLQLNSVTPEDTAIYYCARAGFCSGGNCYPGSEDAFDLWGQGTMVTVGGGGSGGGGSGGGGSDVVMTQSPPSLSVSVGDRVTITCRASQDITNDLNWYQQKPGKAPQLLIYHASELETGVPSRFSGSGFGTDFTLTISSLQPADIATYYCQQYDDLPLTFGGGTKVEIKR
modifications: left off: small tags and cut ends
[1]; purified scFv 5 to 200 nM, c-MetF932-Fc coupled to CM5 chip, Kd calculated by BIAevaluation software
  Kd: 6.82 nM
[1]; [8]
  Koff: 0.00134 s⁻¹
  Kon: 215000 M⁻¹ s⁻¹
[2]
  Inhibition of HGF-induced c-Met phosphorylation: 65.7%
[3]; 1 nM human HGF, immobilized c-Met protein, soluble scFv
  IC50: 27.4 nM
[3]; different concentrations of soluble scFv
  Inhibition of binding activity of HGF to c-Met: dose-dependently inhibited
[4]; c-Met knockdown H460
  Binding activity in c-Met knockdown H460 cells: dramatically decreased
[4]; c-Met wildtype H460
  Binding to H460 cells: able to bind
[5]
  Binding to c-Met567-Fc compared to c-Met932-Fc: similar
[6]
  Binding to VEGF-stimulated HUVECs: bound
[7]; A498, U2OS, NNM cells
  Reactivity with A498, U2OS and NNM cells: did not react
[7]; SKOV3, Mahlavu, SAS, PC3, MDA-MB-231, HCT116, Paca-2, NPC-TW04, H1993 cells, vs control antibody
  Binding to human cancer cell lines: found to bind
